# From FireProtDB (doi:10.1016/j.jmb.2008.02.039)
# B1: Ribonuclease HII, O74035 (parent)
# chain: MKIAGIDEAGRGPVIGPMVIAAVVVDENSLPKLEELKVRDSKKLTPKRREKLFNEILGVLDDYVILELPPDVIGSREGTLNEFEVENFAKALNSLKVKPDVIYADAADVDEERFARELGERLNFEAEVVAKHKADDIFPVVSAASILAKVTRDRAVEKLKEEYGEIGSGYPSDPRTRAFLENYYREHGEFPPIVRKGWKTLKKIAEKVESEKKAEERQATLDRYFRKV
# Variants of: B1
# Settings: Thermococcus kodakarensis (strain ATCC BAA-918 / JCM 12380 / KOD1), pH 9, CD, reversible: Yes, structure 1IO2, whole UniProt chain shown; for Tm / change of melting temperature, mutant - wild type (higher = more stable): Thermal, Gly-NaOH 20 mM; for ddG of mutation (higher = less stable) / denaturant m value / denaturant midpoint (higher = more stable) / unfolding free energy: 50 °C, GdnHCl, Tris-HCl 20 mM
Variant,Tm,"change of melting temperature, mutant - wild type (higher = more stable)",ddG of mutation (higher = less stable),denaturant m value,denaturant midpoint (higher = more stable),unfolding free energy
I6A,79.3 °C,-5.2 °C,,,,
I56A,75.8 °C,-8.7 °C,3.97 kcal/mol,5.35 kcal/mol/M,1.13 M,6.05 kcal/mol
L92A,78.9 °C,-5.6 °C,2.87 kcal/mol,6 kcal/mol/M,1.33 M,8.01 kcal/mol
I15A,,,2.13 kcal/mol,4.3 kcal/mol/M,1.47 M,6.31 kcal/mol
L33A,72.6 °C,-11.9 °C,,,,
L118A,70.8 °C,-13.7 °C,5.26 kcal/mol,5.9 kcal/mol/M,0.9 M,5.31 kcal/mol
I102A,73.8 °C,-10.7 °C,4.04 kcal/mol,5.9 kcal/mol/M,1.12 M,6.62 kcal/mol
L147A,,,2.61 kcal/mol,6.19 kcal/mol/M,1.38 M,8.53 kcal/mol
I20A,76.1 °C,-8.4 °C,4.42 kcal/mol,5.74 kcal/mol/M,1.05 M,6.05 kcal/mol
